# Results from publication PMC11784390, “Conformational changes in and translocation of small proteins: insights into the ejection mechanism of podophages” (Journal of Virology, 2024).
# T1: core protein gp16 (bacteriophage T7), P03726
# T1 chain: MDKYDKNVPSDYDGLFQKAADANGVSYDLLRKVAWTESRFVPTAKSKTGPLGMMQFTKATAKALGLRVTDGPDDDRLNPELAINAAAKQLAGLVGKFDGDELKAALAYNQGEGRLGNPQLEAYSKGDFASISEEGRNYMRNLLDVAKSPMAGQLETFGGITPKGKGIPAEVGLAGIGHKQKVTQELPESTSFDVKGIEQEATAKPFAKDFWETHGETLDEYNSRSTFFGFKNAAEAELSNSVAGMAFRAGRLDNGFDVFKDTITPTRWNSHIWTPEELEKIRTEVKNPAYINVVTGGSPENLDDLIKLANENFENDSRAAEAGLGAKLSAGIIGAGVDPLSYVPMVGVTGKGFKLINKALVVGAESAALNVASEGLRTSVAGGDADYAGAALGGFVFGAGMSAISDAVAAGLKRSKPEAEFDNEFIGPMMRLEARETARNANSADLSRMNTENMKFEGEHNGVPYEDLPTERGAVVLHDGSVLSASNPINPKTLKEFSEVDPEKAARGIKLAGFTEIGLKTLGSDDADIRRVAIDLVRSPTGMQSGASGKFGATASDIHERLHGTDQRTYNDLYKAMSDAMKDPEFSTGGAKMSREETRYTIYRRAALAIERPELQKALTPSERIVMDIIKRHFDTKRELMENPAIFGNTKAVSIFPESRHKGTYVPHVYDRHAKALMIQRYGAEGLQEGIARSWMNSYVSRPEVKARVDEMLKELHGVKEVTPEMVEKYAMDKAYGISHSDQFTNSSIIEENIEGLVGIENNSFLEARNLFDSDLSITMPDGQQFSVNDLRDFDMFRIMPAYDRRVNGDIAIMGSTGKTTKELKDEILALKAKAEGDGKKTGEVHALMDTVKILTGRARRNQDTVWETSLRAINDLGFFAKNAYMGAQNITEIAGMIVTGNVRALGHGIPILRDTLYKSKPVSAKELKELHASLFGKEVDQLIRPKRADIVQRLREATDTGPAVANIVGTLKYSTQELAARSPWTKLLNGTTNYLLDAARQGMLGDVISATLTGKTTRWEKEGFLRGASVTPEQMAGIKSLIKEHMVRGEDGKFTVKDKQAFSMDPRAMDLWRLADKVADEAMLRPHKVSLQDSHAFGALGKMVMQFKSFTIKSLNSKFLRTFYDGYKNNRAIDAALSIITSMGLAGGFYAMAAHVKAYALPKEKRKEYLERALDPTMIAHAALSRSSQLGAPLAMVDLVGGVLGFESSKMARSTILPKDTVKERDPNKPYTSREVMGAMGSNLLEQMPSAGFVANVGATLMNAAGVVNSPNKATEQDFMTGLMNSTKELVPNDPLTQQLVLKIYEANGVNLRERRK
# T2: nozzle protein gp12 (bacteriophage T7, UniProt P03747 1-794)
# T2 construct: nozzle protein gp12 of bacteriophage T7, as it stands in the virion; Native virion protein; also called tail nozzle; source: T7 virions propagated in E. coli, purified (PEG precipitation, CsCl ultracentrifugation)
# T2 sequence (looked up): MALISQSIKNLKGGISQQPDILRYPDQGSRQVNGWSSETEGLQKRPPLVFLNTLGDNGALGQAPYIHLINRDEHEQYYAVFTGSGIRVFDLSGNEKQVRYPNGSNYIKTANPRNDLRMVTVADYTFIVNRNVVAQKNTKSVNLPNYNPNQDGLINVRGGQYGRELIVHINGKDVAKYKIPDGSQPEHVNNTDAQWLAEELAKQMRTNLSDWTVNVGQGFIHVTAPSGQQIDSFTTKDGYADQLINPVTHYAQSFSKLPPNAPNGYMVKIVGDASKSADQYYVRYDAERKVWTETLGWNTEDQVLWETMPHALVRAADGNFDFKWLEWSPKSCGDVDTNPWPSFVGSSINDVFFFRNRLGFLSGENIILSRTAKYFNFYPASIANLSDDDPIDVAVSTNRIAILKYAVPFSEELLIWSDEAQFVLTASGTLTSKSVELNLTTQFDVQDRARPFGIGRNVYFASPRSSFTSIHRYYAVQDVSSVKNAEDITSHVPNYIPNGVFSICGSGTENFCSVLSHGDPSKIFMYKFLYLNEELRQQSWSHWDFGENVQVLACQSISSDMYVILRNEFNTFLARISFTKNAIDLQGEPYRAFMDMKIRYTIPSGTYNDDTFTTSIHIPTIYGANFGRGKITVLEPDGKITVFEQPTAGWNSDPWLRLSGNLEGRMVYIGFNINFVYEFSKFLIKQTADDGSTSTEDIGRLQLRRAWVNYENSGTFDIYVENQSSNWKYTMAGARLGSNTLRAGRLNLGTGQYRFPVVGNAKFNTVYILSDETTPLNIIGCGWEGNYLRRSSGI
# T3: core protein gp15 (bacteriophage T7, UniProt P03725 1-747)
# T3 construct: core protein gp15 of bacteriophage T7, as it stands in the mature virion; Eight-fold ring in the core of mature T7; source: T7 virions propagated in E. coli, purified (PEG precipitation, CsCl ultracentrifugation)
# T3 sequence (looked up): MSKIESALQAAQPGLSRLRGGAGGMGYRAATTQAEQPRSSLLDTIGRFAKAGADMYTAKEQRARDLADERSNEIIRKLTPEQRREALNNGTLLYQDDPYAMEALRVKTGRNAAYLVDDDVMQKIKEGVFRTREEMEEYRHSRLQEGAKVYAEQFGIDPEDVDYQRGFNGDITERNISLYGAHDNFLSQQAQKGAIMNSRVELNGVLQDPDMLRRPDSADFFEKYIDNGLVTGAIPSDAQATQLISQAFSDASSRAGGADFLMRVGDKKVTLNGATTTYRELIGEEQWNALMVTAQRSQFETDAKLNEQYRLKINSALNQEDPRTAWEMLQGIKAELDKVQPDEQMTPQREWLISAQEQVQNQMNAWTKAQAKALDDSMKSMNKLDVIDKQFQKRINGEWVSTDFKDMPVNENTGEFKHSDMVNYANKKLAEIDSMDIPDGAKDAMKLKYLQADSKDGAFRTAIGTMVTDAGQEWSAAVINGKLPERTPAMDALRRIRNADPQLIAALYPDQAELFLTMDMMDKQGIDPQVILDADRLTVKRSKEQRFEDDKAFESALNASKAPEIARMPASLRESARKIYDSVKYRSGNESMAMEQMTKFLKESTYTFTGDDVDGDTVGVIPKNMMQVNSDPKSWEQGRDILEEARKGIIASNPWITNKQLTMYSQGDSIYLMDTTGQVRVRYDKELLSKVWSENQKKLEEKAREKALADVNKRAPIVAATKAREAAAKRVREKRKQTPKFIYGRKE
# T4: core protein gp14 (bacteriophage T7, UniProt P03724 1-196)
# T4 construct: core protein gp14 of bacteriophage T7, 196 residues as printed; modelled residues 4-86 and 101-129 in mature T7, 25-143 in DNA-ejected T7; Eight copies resolved in the mature virion, six copies in the extended channel of DNA-ejected T7; source: T7 virions propagated in E. coli, purified (PEG precipitation, CsCl ultracentrifugation)
# T4 sequence (looked up): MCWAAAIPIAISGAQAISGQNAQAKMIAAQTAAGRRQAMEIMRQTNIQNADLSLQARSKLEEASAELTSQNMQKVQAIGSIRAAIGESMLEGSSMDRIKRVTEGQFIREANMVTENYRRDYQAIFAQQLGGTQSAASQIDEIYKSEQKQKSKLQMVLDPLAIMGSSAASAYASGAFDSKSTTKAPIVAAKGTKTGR
# T5: portal protein gp8 (bacteriophage T7, UniProt P03728 1-536)
# T5 construct: portal protein gp8 of bacteriophage T7, as it stands in the virion; Native virion protein; also called dodecameric portal; source: T7 virions propagated in E. coli, purified (PEG precipitation, CsCl ultracentrifugation); copies: 12
# T5 sequence (looked up): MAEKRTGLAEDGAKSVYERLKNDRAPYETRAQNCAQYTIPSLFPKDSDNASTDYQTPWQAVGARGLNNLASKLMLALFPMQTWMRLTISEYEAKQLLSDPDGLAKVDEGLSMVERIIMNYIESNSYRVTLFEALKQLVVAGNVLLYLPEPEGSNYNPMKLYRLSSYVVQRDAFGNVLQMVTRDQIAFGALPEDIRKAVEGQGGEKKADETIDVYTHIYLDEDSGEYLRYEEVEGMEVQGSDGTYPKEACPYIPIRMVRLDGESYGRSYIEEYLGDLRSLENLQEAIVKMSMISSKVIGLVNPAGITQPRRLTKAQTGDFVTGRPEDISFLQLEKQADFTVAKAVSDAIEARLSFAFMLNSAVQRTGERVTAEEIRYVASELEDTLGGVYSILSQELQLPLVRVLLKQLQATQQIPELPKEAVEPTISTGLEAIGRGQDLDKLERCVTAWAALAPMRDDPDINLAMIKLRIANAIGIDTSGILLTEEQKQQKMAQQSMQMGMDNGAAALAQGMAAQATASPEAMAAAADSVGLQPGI
# Assays:
# [1] = biological target: T1, core protein gp16 (bacteriophage T7), …; assay: cryo-EM structure; mature T7 virions, in situ; entire particle asymmetric 6.1 Å; local reconstructions of core complex 3 Å (four-fold), portal 2.5 Å (twelve-fold), portal–tail complex 2.7 Å (six-fold); conditions: remark: other sources report otherwise
# [2] = biological target: T2, nozzle protein gp12; assay: cryo-EM structure; DNA-ejected T7: purified mature T7 incubated with rough LPS (250 µg/mL) at 37°C for 3 h; entire particle asymmetric 8.2 Å; portal–tail complex 3.5 Å (six-fold); conditions: both partners purified
# [3] = biological target: T3, core protein gp15; assay: cryo-EM structure; mature T7 virions, in situ; entire particle asymmetric 6.1 Å; local reconstructions of core complex 3 Å (four-fold), portal 2.5 Å (twelve-fold), portal–tail complex 2.7 Å (six-fold); conditions: both partners purified
# [4] = biological target: T4, core protein gp14; assay: as above; conditions: both partners purified
# [5] = biological target: T5, portal protein gp8; assay: as above; conditions: both partners purified
Binder,stoichiometry N [1],binding result [2],binding result [3],binding result [4],binding result [5]
"core protein gp16, P03726 1-1318 (natural protein) MDKYDKNVPSDYDGLFQKAADANGVSYDLLRKVAWTESRFVPTAKSKTGPLGMMQFTKATAKALGLRVTDGPDDDRLNPELAINAAAKQLAGLVGKFDGDELKAALAYNQGEGRLGNPQLEAYSKGDFASISEEGRNYMRNLLDVAKSPMAGQLETFGGITPKGKGIPAEVGLAGIGHKQKVTQELPESTSFDVKGIEQEATAKPFAKDFWETHGETLDEYNSRSTFFGFKNAAEAELSNSVAGMAFRAGRLDNGFDVFKDTITPTRWNSHIWTPEELEKIRTEVKNPAYINVVTGGSPENLDDLIKLANENFENDSRAAEAGLGAKLSAGIIGAGVDPLSYVPMVGVTGKGFKLINKALVVGAESAALNVASEGLRTSVAGGDADYAGAALGGFVFGAGMSAISDAVAAGLKRSKPEAEFDNEFIGPMMRLEARETARNANSADLSRMNTENMKFEGEHNGVPYEDLPTERGAVVLHDGSVLSASNPINPKTLKEFSEVDPEKAARGIKLAGFTEIGLKTLGSDDADIRRVAIDLVRSPTGMQSGASGKFGATASDIHERLHGTDQRTYNDLYKAMSDAMKDPEFSTGGAKMSREETRYTIYRRAALAIERPELQKALTPSERIVMDIIKRHFDTKRELMENPAIFGNTKAVSIFPESRHKGTYVPHVYDRHAKALMIQRYGAEGLQEGIARSWMNSYVSRPEVKARVDEMLKELHGVKEVTPEMVEKYAMDKAYGISHSDQFTNSSIIEENIEGLVGIENNSFLEARNLFDSDLSITMPDGQQFSVNDLRDFDMFRIMPAYDRRVNGDIAIMGSTGKTTKELKDEILALKAKAEGDGKKTGEVHALMDTVKILTGRARRNQDTVWETSLRAINDLGFFAKNAYMGAQNITEIAGMIVTGNVRALGHGIPILRDTLYKSKPVSAKELKELHASLFGKEVDQLIRPKRADIVQRLREATDTGPAVANIVGTLKYSTQELAARSPWTKLLNGTTNYLLDAARQGMLGDVISATLTGKTTRWEKEGFLRGASVTPEQMAGIKSLIKEHMVRGEDGKFTVKDKQAFSMDPRAMDLWRLADKVADEAMLRPHKVSLQDSHAFGALGKMVMQFKSFTIKSLNSKFLRTFYDGYKNNRAIDAALSIITSMGLAGGFYAMAAHVKAYALPKEKRKEYLERALDPTMIAHAALSRSSQLGAPLAMVDLVGGVLGFESSKMARSTILPKDTVKERDPNKPYTSREVMGAMGSNLLEQMPSAGFVANVGATLMNAAGVVNSPNKATEQDFMTGLMNSTKELVPNDPLTQQLVLKIYEANGVNLRERRK",4,,,,
"small protein gp6.7 (natural protein, bacteriophage T7, UniProt P03801 1-88, looked up, gp6.7 of bacteriophage T7, 88 residues as printed; modelled loop I (2-15) and loop II (34-50) in mature T7, conformer A 11-41 and conformer B 11-59 in DNA-ejected T7; Twelve copies in the mature virion and in the extended channel of DNA-ejected T7; also called core protein gp6.7; source: T7 virions propagated in E. coli, purified (PEG precipitation, CsCl ultracentrifugation)) MCFSPKIKTPKMDTNQIRAVEPAPLTQEVSSVEFGGSSDETDTEGTEVSGRKGLKVERDDSVAKSKASGNGSARMKSSIRKSAFGGKK",,binds,binds,binds,binds
